We go through eleven molecules from publication PMC3713010, “Sox2 Transcriptionally Regulates Pqbp1, an Intellectual Disability-Microcephaly Causative Gene, in Neural Stem Progenitor Cells”.

First the molecules themselves.
T1: Oct6 DNA-binding domain (BD-Oct6) (Mus musculus (B6), UniProt P21952 317-416)
T1 sequence: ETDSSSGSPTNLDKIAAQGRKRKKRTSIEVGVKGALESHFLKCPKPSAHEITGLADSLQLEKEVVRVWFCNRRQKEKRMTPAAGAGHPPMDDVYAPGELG

T2: Brn2 DNA-binding domain (BD-Brn2) (Mus musculus (B6), UniProt P31360 336-435)
T2 sequence: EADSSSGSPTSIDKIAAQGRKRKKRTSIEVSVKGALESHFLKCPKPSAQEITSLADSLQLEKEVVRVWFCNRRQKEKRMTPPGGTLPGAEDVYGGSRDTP

B1: 22 (dsDNA)
DNA 1: GGGGGTACATACAGCAAAATAATCTTTGTAGGGGGGACCCCC
DNA 2: GGGGGTCCCCCCTACAAAGATTATTTTGCTGTATGTACCCCC
B2: 15 (dsDNA)
DNA 1: GGGGGAGATCTTTACAAATTTCTATATTAGAGTTTTTTGTCCCCC
DNA 2: GGGGGACAAAAAACTCTAATATAGAAATTTGTAAAGATCTCCCCC
B3: 21 (dsDNA)
DNA 1: GGGGGCAGAATCATTTGTGTTTTCCCATTTTTGCCAGGGGCCCCC
DNA 2: GGGGGCCCCTGGCAAAAATGGGAAAACACAAATGATTCTGCCCCC
B4: 19 (dsDNA)
DNA 1: GGGGGGAAGGAAAATTGTTCCCTGACATTTTTGAACTGGGCCCCC
DNA 2: GGGGGCCCAGTTCAAAAATGTCAGGGAACAATTTTCCTTCCCCCC
B5: 20 (dsDNA)
DNA 1: GGGGGCTCAGAGCTAGAAATATTTGTGGAATGGGCCCCC
DNA 2: GGGGGCCCATTCCACAAATATTTCTAGCTCTGAGCCCCC
B6: 14 (dsDNA)
DNA 1: GGGGGGTCAGGATTTTGTGTGTGGATTAACTGTATCATCCCCC
DNA 2: GGGGGATGATACAGTTAATCCACACACAAAATCCTGACCCCCC
B7: 17 (dsDNA)
DNA 1: GGGGGTTTAAAGATTTGTTTCTTTATTATATGTAAGTACCCCC
DNA 2: GGGGGTACTTACATATAATAAAGAAACAAATCTTTAAACCCCC
B8: 23 (dsDNA)
DNA 1: GGGGGAATCTCTATCTTACTTCTTGTAAGTGTGGACAAATGCAGGTTCCCCC
DNA 2: GGGGGAACCTGCATTTGTCCACACTTACAAGAAGTAAGATAGAGATTCCCCC
B9: 16b (dsDNA)
DNA 1: GGGGGGTAGCTTCACAAAGTGATTAACACATGGATACCCCC
DNA 2: GGGGGTATCCATGTGTTAATCACTTTGTGAAGCTACCCCCC
B10: 18 (dsDNA)
DNA 1: GGGGGCTTAGAATTAGTAATTTCTTGATATTGTCTGTTAAGCCCCC
DNA 2: GGGGGCTTAACAGACAATATCAAGAAATTACTAATTCTAAGCCCCC
B11: 16a (dsDNA)
DNA 1: GGGGGGTGAACCCTTTCAGATTTAGTGACGTAGCTTCACAAAGTGATTAACCCCC
DNA 2: GGGGGTTAATCACTTTGTGAAGCTACGTCACTAAATCTGAAAGGGTTCACCCCCC

Chain of Pax6 DNA-binding domain (BD-Pax6) (P63015 190-289): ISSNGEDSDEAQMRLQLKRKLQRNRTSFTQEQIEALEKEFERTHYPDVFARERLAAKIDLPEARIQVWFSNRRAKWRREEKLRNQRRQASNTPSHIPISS

One series has as its target Pax6 DNA-binding domain (BD-Pax6) (Mus musculus (B6), UniProt P63015 190-289). The series can be described thus: EMSA; 10% glycerol, 20 mM HEPES pH 7.8, 45 mM KCl, 10 mM NaCl, 1 mM EDTA, 1 mM DTT, 0.2 ug/uL BSA, 0.1% NP-40, 50 ng poly-dIdC; 20 ng each GST protein; room temperature 30 min (heterodimers 4 C); 6% PAGE 0.25x TBE. The following applies: protein: recombinant; tags: GST (N-terminal, pGEX-6P-1); label: 32P-dCTP fill-in of the 5' (dG)5 overhangs of both strands (Methods; control probes are given with GGG). An outline of the steps: (§1)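 Candidate cis-element oligonucleotides were annealed, labelled with 32P-dCTP and tested against GST-tagged transcription factor DNA-binding domains made in E. coli BL21 and purified on glutathione-sepharose. For each binding reaction, 20 ng protein was combined with 40,000–50,000 cpm probe and 50 ng poly-dIdC in HEPES/KCl glycerol buffer containing BSA and detergent for 30 min at room temperature. Gels of 6% polyacrylamide in 0.25×TBE were run at 4°C, and band radioactivity was measured on a BAS4000 imager. The readout for DNA binding was the band signal in the expected shift region.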
On the technique in general: A gel shift assay detects complexes by their altered migration in electrophoresis.
On to B1, for which the binding result is “no binding”.

For B2, the binding result was “no binding”.

As to B3, the binding result was “no binding”.

Regarding B4, the binding result is on record as “no binding”.

Take B5: the binding result is “no binding”.

For B6, the binding result is recorded as “no binding”.

In the case of B7, the binding result was “no binding”.

Turning to B8, the binding result was “no binding”.

With B9, the binding result was “no binding”.

B10: the binding result is listed as “binds”.

For the molecule B11, the binding result is recorded as “no binding”.

The next series deals with T1, Oct6 DNA-binding domain (BD-Oct6). Described as above. The note with it: protein: recombinant; tags: GST (N-terminal, pGEX-6P-1); label: 32P-dCTP fill-in of the 5' (dG)5 overhangs of both strands (Methods; control probes are given with GGG). An outline of the steps:
as §1
B1: the binding result is reported as “no binding”.

Consider B2, for which the binding result is recorded as “no binding”.

As for B3, the binding result is recorded as “no binding”.

Turning to B4, the binding result is listed as “no binding”.

As to B5, the binding result was “no binding”.

As to B6, the binding result is “no binding”.

For B7, the binding result was “binds”.

Regarding B8, the binding result is “no binding”.

B9: the binding result is on record as “binds”.

As to B10, the binding result is “binds”.

For the molecule B11, the binding result is “binds”.

For a further series, the target named is T2, Brn2 DNA-binding domain (BD-Brn2). The series is described as above. The following applies: protein: recombinant; tags: GST (N-terminal, pGEX-6P-1); label: 32P-dCTP fill-in of the 5' (dG)5 overhangs of both strands (Methods; control probes are given with GGG). An outline of the steps:
as §1
For B1, the binding result is “no binding”.

Regarding B2, the binding result is reported as “no binding”.

Regarding B3, the binding result was “no binding”.

On to B4, for which the binding result is “no binding”.

Consider B5, for which the binding result is “no binding”.

As for B6, the binding result is “no binding”.

For B7, the binding result is reported as “binds”.

As to B8, the binding result is given as “no binding”.

B9: the binding result is reported as “binds”.

Consider B10, for which the binding result was “no binding”.

As to B11, the binding result was “binds”.
